Patent US20230192767A1 (MEDIKINE, published 2023)
Ends that are not written are not given here.

T1: human IL-2Rγc (CD132 protein, Fc Tag) (23-254) (human, UniProt P31785 23-254)
T1 construct: range 23-254; Bought protein; also called IL-2Rγc subunit; γc subunit; not shown: Fc Tag of the bought protein (ACRObiosystems ILG-H5256)
T1 sequence (looked up): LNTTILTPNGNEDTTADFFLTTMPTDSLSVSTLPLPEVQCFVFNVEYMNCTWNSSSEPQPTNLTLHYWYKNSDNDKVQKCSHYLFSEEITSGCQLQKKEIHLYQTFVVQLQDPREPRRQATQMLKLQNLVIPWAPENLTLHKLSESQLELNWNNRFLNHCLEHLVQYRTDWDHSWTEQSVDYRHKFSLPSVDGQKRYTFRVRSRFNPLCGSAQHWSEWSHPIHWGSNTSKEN

T2: human IL-2Rβ (CD122 protein, Fc Tag) (27-239) (human, UniProt P14784 27-239)
T2 construct: range 27-239; Bought protein; also called IL-2Rβ subunit; IL-2Rβ-Fc; not shown: Fc Tag of the bought protein (ACRObiosystems ILB-H5253)
T2 sequence (looked up): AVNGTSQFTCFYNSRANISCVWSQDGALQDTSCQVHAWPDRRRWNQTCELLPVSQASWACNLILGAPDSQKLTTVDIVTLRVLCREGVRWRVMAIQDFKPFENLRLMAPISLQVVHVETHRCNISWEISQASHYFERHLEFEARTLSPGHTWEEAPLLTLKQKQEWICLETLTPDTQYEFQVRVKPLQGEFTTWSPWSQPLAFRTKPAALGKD


Legend:
[1] = biological target: T1, human IL-2Rγc (CD132 protein, Fc Tag) …; test: IC50, method not told in the paragraph
[2] = biological target: T2, human IL-2Rβ (CD122 protein, Fc Tag) …; test: IC50, method not told in the paragraph

| Binder | IC50 [1] | IC50 [2] |
| --- | --- | --- |
| MCWLEWGEWVGSCL [IL-2Rγc ligand SEQ ID NO: 236] | < 10 µM | – |
| RSCYYKRPRLWCSE [IL-2Rβ ligand SEQ ID NO: 1044] | – | < 10 µM |
| KVCEMWGGVLLCWN [IL-2Rγc ligand SEQ ID NO: 198] | < 10 µM | – |
| CPSMLQGPERTWVC [IL-2Rγc ligand SEQ ID NO: 266] | < 10 µM | – |

More lines, now with the values ahead:

| IC50 [1] | IC50 [2] | Binder |
| --- | --- | --- |
| < 10 µM | – | SLLKCYNASTCASVF [IL-2Rγc ligand SEQ ID NO: 948] |
| < 10 µM | – | DLSDLSTFWLSQ (not fully specified, Family 3; also called 248 or 1051) [IL-2Rγc ligand SEQ ID NO: 1051] |
| < 10 µM | – | RTCTEWENVVLCWV (not fully specified; cysteine pairing not given here) [IL-2Rγc ligand SEQ ID NO: 202] |
| < 10 µM | – | DCSMWEGVELCW (also called Peptide F) [IL-2Rγc ligand SEQ ID NO: 224] |
